Assay results from PMC3247260 (2011).

Key:
Assay in all cases: ITC
linear diUb = linear diUb (UniProt P0CG48 1-76; P0CG48 1-76)
ubiquitin (Ub) = ubiquitin (Ub) (UniProt P0CG48 1-76)
K48-linked diUb = K48-linked diUb (UniProt P0CG48 1-76, K48-linked (isopeptide linkage between the two Ub units))

Kd (linear diUb): 2300 nM
Kd (ubiquitin (Ub)): 21000 nM
Kd (K48-linked diUb): 1800 nM
B1: tandem UBA domains of USP13 (USP13-UBA12, residues 652-776) (domain or fragment)
chain: DIDESSVMQLAEMGFPLEACRKAVYFTGNMGAEVAFNWIIVHMEEPDFAEPLTMPGYGGAASAGASVFGASGLDNQPPEEIVAIITSMGFQRNQAIQALRATNNNLERALDWIFSHPEFEEDSDF
